What is called Kd is the constant that tells how readily two partners part at equilibrium.

One assay deals with T1, VHH FC5.
T1 construct: put together from its FR and CDR entries; also called FC5-VHH; FC5 control
The assay is described as follows: SPR, VHH flowed over immobilized FC5, 25 C. An excerpt: (§1) Surface Plasmon Resonance for VHH antibodies. […] Monomeric VHH fractions were collected and protein concentration determined by measuring A280 measurement. Using a Biacore T200 instrument (GE Healthcare), approximately 500-1000 RUs of FC5DIE3IR, FC5 and an irrelevant VHH (2A3-H4) were immobilized on a CM5 Series S sensor chip (GE Healthcare) at pH 4.0 using standard amine coupling according to the manufacturer's instructions (GE Healthcare). […] Surfaces were regenerated by washing with a 120 s pulse of 10 mM glycine pH 1.5. Data were analyzed with Biacore T200 Software v 3.0 and affinities determined using steady state binding or a 1:1 binding model.
(§2) Surface Plasmon Resonance (SPR).
On the technique in general: Surface plasmon resonance follows binding to a sensor surface in real time, without labels.

Assay [1] addresses T2, FC5DIE3IR recombinant protein.
T2 construct: Made in CHO-3E7 cells; also called FC5DIE31R; FC5DIE3R
Description: SPR (Biacore T200), VHH flowed over immobilized FC5DIE3IR, steady-state fit, 25 C.
Text: as §1, §2

The next assay has as its target human Nav1.7 polypeptide (human, UniProt Q15858 1-1988). Description: cell-based or functional assay.
For assay [2], the target named is T2, FC5DIE3IR recombinant protein. Description: SPR, multiple cycle kinetics, VHH over immobilized FC5DIE3IR.
The target is the same in assay [3]. Description: SPR (Biacore T200), VHH flowed over immobilized FC5DIE3IR, steady state fit, 25 C.
Text: as §1, §2

Assay [4] has the same target. The assay is described as follows: SPR steady-state plot (Req against Conc up to 5e-6), VHH DI-D over immobilized FC5DIE3IR.

T1 sequence (VHH, as listed by the source): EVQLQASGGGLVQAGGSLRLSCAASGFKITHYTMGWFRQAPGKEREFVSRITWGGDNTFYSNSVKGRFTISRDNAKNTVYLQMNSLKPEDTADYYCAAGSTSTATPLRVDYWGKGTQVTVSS

B1: VHH DI-48 (VHH)
VHH: QVQLVESGGGLVQAGGSLRLSCAASGRTFSTYVMGWFRQTPGKEREFVAGFSWSGDYAIYVNSVKGRFTISRDNAKNTVYLQMNSLRPEDTAVYYCAARQRGGYSGRSYYTGRNDYEYWGQGTQVTVSS
notes: From the FC5DIE3IR llama immune library; soluble tagged monomer in SPR; not shown: cmyc and His6 tags at the C-terminus
Regarding B1, in the assay with VHH FC5, the binding result was “no binding (tested: 312 nM-5000 nM)”. In assay [1], the equilibrium dissociation constant (Kd) came out at 8400 nM.

B2: VHH DI-D (VHH)
VHH: QVKLEESGGGLVQPGGSLKLSCVASGFAFSSAPMDWVRKAPGKDVEWLSTIESDQDHTIYYANSVKGRFTISRDDVQNILYLQMNDLKIEDTATYYCQKRGEKKTRGQGTQVTVSS
notes: From the naive LAC-M library; soluble tagged monomer in protein ELISA, SPR and patch clamp; also called phage D; clone D; not shown: 6xHis and c-Myc tags on the soluble monomer
Turning to B2, the “concentration response relationship (IC50), hNav1.7 currents” value with human Nav1.7 polypeptide is 1480 nM. In addition, the figures for the dissociation constant Kd in assay [2], in assay [3] and in assay [4] were 2000 nM, 1930 nM and 2040 nM, respectively.
